According to paper PMC7859202, “A scaffold lncRNA shapes the mitosis to meiosis switch”:

T1: RRM3Mei2 (Schizosaccharomyces pombe, UniProt P08965 579-750)
T1 sequence: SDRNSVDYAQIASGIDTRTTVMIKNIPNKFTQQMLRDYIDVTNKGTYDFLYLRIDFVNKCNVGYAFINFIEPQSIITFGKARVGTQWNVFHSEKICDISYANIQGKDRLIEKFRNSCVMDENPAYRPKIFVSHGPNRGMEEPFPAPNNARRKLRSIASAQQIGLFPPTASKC


Target: T1, RRM3Mei2
Assay: ITC; ITC: 20 mM Tris-HCl pH 7.5, 200 mM NaCl, 5 mM 2-mercaptoethanol, 20 °C; N fixed to 1
Conditions: protein: recombinant; tags: GST-tag removed by 3C protease

For UUUUUUGGUUUUUUU (ssRNA) [U6GGU7], which Kd is on record?
The Kd was 0.435 ± 0.112 µM.

GCUUUUUGUUCG (ssRNA) [GCUUUUUGUUCG 12-mer] was tested. Which Kd did it give?
The Kd was 0.555 ± 0.167 µM.

For UUUUUUUGUUUUUUU (ssRNA) [U7GU7], which Kd is on record?
The Kd was 0.145 ± 0.026 µM.

How did the Kd turn out when UUUUUUUUUUUUUUU (ssRNA) [poly-U15] was run?
The Kd was 1.43 ± 0.194 µM.
